The target of data set [1] is T1, EGFR^988-998 peptide, DADEpYLIPQQG (Homo sapiens, UniProt P18031, Q262A).
T1 construct: The catalytic domain of PTP1B (residues 1 to 321) was used for in vitro study; made in house; host or cells: E. coli (pT7-7 plasmids)
T1 sequence (P18031 1-321 Q262A): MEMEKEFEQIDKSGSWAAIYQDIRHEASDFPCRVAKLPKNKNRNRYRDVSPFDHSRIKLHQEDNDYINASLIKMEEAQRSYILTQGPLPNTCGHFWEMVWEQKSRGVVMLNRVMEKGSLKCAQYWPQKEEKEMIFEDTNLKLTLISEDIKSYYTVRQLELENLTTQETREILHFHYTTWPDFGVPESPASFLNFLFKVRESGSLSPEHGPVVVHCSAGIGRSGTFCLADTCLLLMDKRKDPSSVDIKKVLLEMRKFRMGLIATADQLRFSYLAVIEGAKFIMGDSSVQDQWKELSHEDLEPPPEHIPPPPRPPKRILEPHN
As to conditions: cited from earlier work.

The conditions of data set [2]: pNPP as substrate, cited from earlier work.
The target in data set [3] is Ac-Asp-Ala-Asp-Glu-F2Pmp-Leu-NH2. As to conditions: ITC, 25° C. and pH 7.0; data from (24); cited from earlier work.
Data set [4] deals with T2, EGFR 988-998 peptide DADEpYLIPQQG.
T2 chain: DADEXLIPQQG

The subject of data set [5] is EGFR^988-998 peptide, DADEpYLIPQQG. Kind of data set: Kinetic constants for PTP1B-catalyzed hydrolysis of pTyr-containing EGFR988-998 peptide. The format is biochemical. As to conditions: EGFR988-998 peptide as substrate; 25° C. and pH 7.0. From the text:
(§1) The catalytic domain of PTP1B (residues 1 to 321) was used for in vitro study. PTP1B mutants, C215S, D181A, and Q262A, were described previously (9, 25, 26). PTP1B double mutants, D181A/C215S and C215S/Q262A, were generated by PCR reactions, according to the standard procedure of the Quick-Change™ site-directed mutagenesis kit (Stratagene), using pT7-7/PTP1B/C215S as a template. PTP1B double mutants, D181A/C215E and D181A/Q262A, were generated by similar PCR procedures, using pT7-7/PTP1B/D181A as a template. The recombinant wild-type and mutant PTP1Bs were expressed in E. coli, and purified to homogeneity as described (25, 27). Protein concentration was determined from absorbance measurement at 280 nm, using an absorbance coefficient of 1.24 for 1 mg/ml PTP1B.
All assays were performed at 25° C. in buffer (pH 7.0, ionic strength=0.15 M) containing 50 mM 3,3-dimethylglutarate and 1 mM EDTA. A continuous spectrophotometric assay, previously described (28), was employed to determine kcat and Km for the pTyr-containing peptides. The dephosphorylation reaction was monitored by either an increase in absorbance at 282 nm, or an increase in fluorescence at 305 nm. Fluorometric and absorbance determinations were performed on a Perkin-Elmer LS50B fluorometer and a Perkin-Elmer Lambda 14 spectrophotometer, respectively. The instruments were equipped with a water-jacketed cell holder, permitting maintenance of the reaction mixture at the desired temperature (25° C.).

Data set [6] can be described thus: Kinetic constants for PTP1B-catalyzed hydrolysis of pNPP. The format is biochemical. Conditions: pNPP as substrate; 25° C. and pH 7.0.
From the text: as §1
PTP activity was assayed at 25° C. and pH 7.0, in a reaction mixture (0.2 ml) containing pNPP concentrations ranging from 0.2 to 5 Km. The following buffered solution was used for activity measurements: pH 7.0, 50 mM 3,3-dimethylglutarate, 1 mM EDTA; the ionic strength was 0.15 M, as adjusted by addition of NaCl. Initial rate measurements for the enzyme-catalyzed hydrolysis of pNPP were conducted as previously described (26). Michaelis-Menten kinetic parameters were determined from a direct fit of the data to the Michaelis-Menten equation, using the nonlinear regression program, KINETASYST (Intellikinetics, State College, Pa.).

For a further data set, the system named is EGF receptor. Kind of data set: Substrate protection: EGF receptor tyrosine phosphorylation in COS1 cells expressing PTP1B forms (anti-pTyr Western blot). The format is cell-based, Monkey. Conditions: COS1 cell lysates, anti-pTyr immunoblot (FIG. 4). Here is the method:
FIG. 4 sets forth Western blots (WB) that show the level of tyrosine phosphorylation in the epidermal growth factor receptor (EGFR) upon expression of the wild-type and mutant PTP1Bs (4 μg plasmid/60 mm dish) in COS1 cells. Samples (50 μg total protein) were taken from the lysates of COS1 cells transfected with 4 μg of pJ3H plasmids expressing HA-tagged wild-type PTP1B, D181A, C215S, D181A/Q262A, or D181A/C215S. These samples were loaded into each lane for SDS-PAGE electrophoresis, and transferred onto a nitrocellulose membrane. The proteins on the membrane were first immunoblotted with anti-pTyr HRP conjugate (upper panel). The membrane was then stripped and re-probed with anti-hemagglutinin (anti-HA) HRP conjugate (lower panel).
The hemagglutinin-tagged (HA-tagged) full-length human wild-type PTP1B in pJ3H expression vector was a gift from Dr. Chemoff (30). The HA-tagged PTP1B mutants, C215S, D181A, D181A/C215S, and D181A/Q262A, were generated by PCR reactions, according to the standard procedure of the Quick-Change™ site-directed mutagenesis kit (Stratagene), using pJ3H-HA-PTP1B as a template. All mutations were verified by DNA sequencing.
Monkey kidney COS1 cells (ATCC: CRL-1650) were maintained in Dulbecco's modified Eagle's minimum essential medium (DMEM), supplemented with 10% fetal bovine serum (Life Technologies, Inc.), penicillin (50 units/ml), streptomycin (50 μg/ml), and L-glutamine (2 mM) under a humidified atmosphere containing 5% CO2. In transient transfection experiments, COS1 cells were inoculated at a density of 2×10^5 cells/60-mm dish, and grown overnight in DMEM containing 10% fetal bovine serum. Transfection was performed using LipoTAXI^R according to the manufacturer's recommendations (Stratagene, Cedar Creek, Tex.). Each transfection assay included 4 μg of purified DNA mixed with LipoTAXI^R in a 1:5 DNA:lipid ratio per 60-mm dish of cells. Following transfection, the cells were exchanged to normal culture medium, and maintained for 44 to 48 h at 37° C. and 5% CO2. The efficiency of transfection, as assessed by 5-bromo-4-chloro-3-indolyl-β-D galactoside (X-Gal) staining of pCMV-β-gal-transfected (β-Gal staining kit, Invitrogen) COS cells, was 25%.
The transfected cells (treated with or without EGF) were lysed with “lysis buffer” containing 50 mM Tris-HC1 (pH 7.5), 5 mM EDTA, 150 mM NaCl, 10 mM sodium phosphate, 10 mM sodium fluoride, 5 mM iodoacetic acid, 1 mM benzamidine, 1% Triton X-100, 10 μg/ml leupeptin, and 5 μg/ml Aprotinin. Lysate protein concentration was estimated using Bio-Rad protein assay reagent (Bio-Rad, Hercules, Calif.).
For immunoprecipitation, 1 mg of cell lysate was immunoprecipitated overnight with 30 μl of agarose-conjugated anti-hemagglutinin antibody at 4° C. Immunocomplexes were washed four times with the cell lysis buffer, and boiled for 5 min in SDS-PAGE sample buffer. Proteins in the cell lysate were separated by 8% SDS-PAGE under reducing conditions, according to the method of Laemmli (31), followed by blotting onto nitrocellulose membranes (Protran, Schleicher & Schuell). The nitrocellulose membranes were blocked with 5% non-fat dry milk in Tris-buffered saline/Tween (TBST) buffer (20 mM Tris-HC1, 150 mM NaCl, 0.1% Tween-20; pH 7.6) for 1 h at 25° C.
Thereafter, blots were incubated overnight with primary antibodies diluted in TBST containing 5% non-fat dry milk at 4° C. […]

The mark [7] stands for this setting: EGFR988-998 peptide as substrate, 30° C. and pH 7.0 (26).
The mark [8] stands for this setting: hydrolysis of EGFR988-998 peptide and phosphorylated lysozyme, previous kinetic studies (18, 26).

The values that follow come from US8071348B2, “Protein tyrosine phosphatase substrate-trapping double mutant and uses thereof” (Albert Einstein College of Medicine of Yeshiva University, priority 2002, dated 2011).

Like-named read-outs stand apart in the source and are kept apart here.

B1: Q262A: PTP1B mutant, Gln262 replaced by Ala, described previously (protein, UniProt P18031 1-435, looked up, variant Q262A)
Tyrosine-protein phosphatase …: MEMEKEFEQIDKSGSWAAIYQDIRHEASDFPCRVAKLPKNKNRNRYRDVSPFDHSRIKLHQEDNDYINASLIKMEEAQRSYILTQGPLPNTCGHFWEMVWEQKSRGVVMLNRVMEKGSLKCAQYWPQKEEKEMIFEDTNLKLTLISEDIKSYYTVRQLELENLTTQETREILHFHYTTWPDFGVPESPASFLNFLFKVRESGSLSPEHGPVVVHCSAGIGRSGTFCLADTCLLLMDKRKDPSSVDIKKVLLEMRKFRMGLIATADQLRFSYLAVIEGAKFIMGDSSVQDQWKELSHEDLEPPPEHIPPPPRPPKRILEPHNGKCREFFPNHQWVKEETQEDKDCPIKEEKGSPLNAAPYGIESMSQDTEVRSRVVGGSLRGAQAASPAKGEPSLPEKDEDHALSYWKPFLVNMCVATVLTAGAYLCYRFLFNSNT
Regarding B1, the Michaelis constant (Km) is 0.35 ± 0.05 µM in data set [1] (setting [7]); 58 ± 6 µM in data set [2] (30° C. and pH 7.0 (26)). The kcat was 0.29 ± 0.002 s^− in data set [1] (setting [7]); 0.21 ± 0.01 s⁻¹ in data set [2] (30° C. and pH 7.0 (26)). Besides, the “fold reduction of kcat” value in data set [1] (EGFR988-998 peptide as substrate, (26)) is 150 fold; in data set [1] (setting [8]), 100 fold; in data set [2] ((26)), 80 fold. Besides, the “fold decrease in Km” value was 7.4 fold in data set [1] (EGFR988-998 peptide as substrate, shown previously (26)) and 38 fold in data set [2] (shown previously (26)). For the same molecule, the “fold reduction of kcat/Km” value in data set [1] (setting [8]) was 10 fold.

B2: wild-type PTP1B, catalytic domain (residues 1 to 321) (protein)
chain: MEMEKEFEQIDKSGSWAAIYQDIRHEASDFPCRVAKLPKNKNRNRYRDVSPFDHSRIKLHQEDNDYINASLIKMEEAQRSYILTQGPLPNTCGHFWEMVWEQKSRGVVMLNRVMEKGSLKCAQYWPQKEEKEMIFEDTNLKLTLISEDIKSYYTVRQLELENLTTQETREILHFHYTTWPDFGVPESPASFLNFLFKVRESGSLSPEHGPVVVHCSAGIGRSGTFCLADTCLLLMDKRKDPSSVDIKKVLLEMRKFRMGLIQTADQLRFSYLAVIEGAKFIMGDSSVQDQWKELSHEDLEPPPEHIPPPPRPPKRILEPHN
For the molecule B2, the Kd in data set [3] was 240 ± 50 nM. Further, in data set [4], the Km (hydrolysis of the EGFR 988-998 peptide, 25 C, pH 7.0) amounted to 2.6 µM. In addition, the Km in data set [5] turned out to be 2.6 ± 0.3 µM; in data set [6], 2400 ± 200 µM. Also, the kcat in data set [5] was 30 ± 1 s^−; in data set [6] it was 9.8 ± 0.5 s⁻¹. Also, in the data set with EGF receptor, the “level of pTyr in the EGF receptor / enhancement of EGF receptor phosphorylation” value is “comparable to that in the vector control”.
